# According to patent publication US20240158500A1 (UCL BUSINESS, published 2024):
# Numbering of substitutions follows the chain as printed.
# T1: purified CD160 (SPR analyte) (UniProt O95971 25-159, limits assumed)
# T1 sequence (looked up): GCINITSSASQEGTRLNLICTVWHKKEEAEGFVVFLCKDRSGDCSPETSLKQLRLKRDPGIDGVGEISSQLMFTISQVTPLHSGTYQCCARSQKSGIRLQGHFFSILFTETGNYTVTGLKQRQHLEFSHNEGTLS
# B1: anti-CD160 scFv clone 3 (C83) (scFv)
# scFv: QVNLQESGPGLVQPSETLSLTCTVSGFSLTSYGVYWVRQPPGKGLEWMGRIWNDGGTDYNPALKSRLSISRDTSKSQVFLKLNSLQTEDTAIYFCARGWTHWGQGTLVTVSSGGGGSGGGGSGGGGSDIQMTQSPASLSASLGETVSIECLASEDIYNNLAWYQQKPGKSPQLLIYYASSLQDGVPSRFSGSGSGTQYSLKINSLESEDVATYFCLQDSEYPPTFGGGTKLELKR
# B2: anti-CD160 scFv clone 10 (scFv)
# scFv: EVQLVESGPGLVQPSETLSLTCTVSGFSLTSYGVNWFRQPPGKGLEWMGTIWNDGGTDYNSALKSRLSISRDTSKSQVFLKMNSLQTEDTAIYFCARGFEYWGQGTLVTVSSGGGGSGGGGSGGGGSDIVMTQSPKSMSISVGDRVTMNCKASQNVGKNIAWYQQKPGQSPKLLIYYASNRYTGVPDRFTGSGSGTDFTLTITNMQTEDLAVYYCLQYNYNPWTFGGGTKLELKR
# notes: Rat scFv, VH-linker-VL
# B3: anti-CD160 scFv clone 4 (scFv)
# scFv: EVKLVESGGGLVQPGRPLKLSCAASGFTFSNYGMAWVRQAPKKGLEWVATISTGDDNTYYRDSVKGRFTISRDNAKNTQYLQMDSLRSEDTATYYCATHNYESTIFDYWGQGVMVTVSSGGGGSGGGGSGGGGSDIAITQSPASMTASPGERVTITCRASSSVSYMHWYQQKPGASPKPWIYETSKLASGVPDRFSGSGSGTSYSLTINNMEAEDAATYYCQQWNYPSMYTFGAGTKLELKR
# B4: anti-CD160 scFv clone 2 (C25) (scFv)
# scFv: EVQLVESGGDLVQPGRSLKLSCAASGFTFSNYGMAWVRQAPTKGLEWVASVSNGGGNTYYRDSVKGRFTISRDNAKNTQYLQMDSLRSEDTATYYCVTHNYESTVFDYWGQGAMVTVSSGGGGSGGGGSGGGGSEIVLTQSPTTMTASPGEKVTITCRASSSVSYMHWYQQKPGASPKPWIYETSKLASGVPDRFSGSGSGTSYSLTINNMEAEDAATYYCQQWNYPSMYTFGPGTKLELKR
# B5: anti-CD160 scFv clone 19 (scFv)
# scFv: B4 scFv with Q3K, D10G, S50T, V51I, T98A, T144P, P234A
# notes: Rat scFv, VH-linker-VL
# B6: anti-CD160 scFv clone 12 (scFv)
# scFv: EVQLVESGGGFVQPGGSLKLSCAASGFTFSNYGMAWVRQAPKKGLEWVASISSGRGNTYYRDSVKGRFTISRDNAKNTQYLQMDSLRSEDTATYYCVTHNYESTIFDYWGQGVMVTVSSGGGGSGGGGSGGGGSEIVLTQSPTTMTASPGEKVTIICRASSSVSYMHWYQQKPGASPKPWIYETSKLASGVPDRFSGSGSGTSYSLTFNNMEAEDAATYYCQQWNYPSMYTFGAGTKLELKR
# notes: Rat scFv, VH-linker-VL
# B7: anti-CD160 scFv clone 16 (scFv)
# scFv: QVNLQESGPGLVRPSETLSLTCTVSGFSLISYGVNWFRQPPGKGLEWMGTIWNDGGTDYNSALKSRLSISRDTSKSQVFLKMNSLQTEDTAIYFCARGFEHWGQGVMVTVSSGGGGSGGGGSGGGGSDIQMTQSPASLSASLGETVSIECLTSEDISNDSAWYQQKSGKSPQLLIYAASRLQDGVPSRFSGSGSGTRYSLKISGMQPEDEADYFCQQSYKYPLTFGSGTKLEIKR
# notes: Rat scFv, VH-linker-VL
# B8: anti-CD160 scFv clone 11 (PB10) (scFv)
# scFv: EVQLVESGGGLVQPGRSLKLSCAASGFTFSNYGMAWVRQAPTKGLEWVASINTSGGSTYYRDSVKGRFTISRDNAKSTLYLQMDSLRSEDTATYYCATIYYHDGSYYYAGWFAYWGQGTLVTVSSGGGGSGGGGSGGGGSDIVLTQSPALAVSPGERVSISCRASESVSTLMHWYQQKLGQQPKLLIYGASNLESGVPARFSGSGSGTDFTLNIDPVEADDIATYFCQQSWNGPWTFGGGTKLELKR
# notes: Rat scFv, VH-linker-VL
# B9: anti-CD160 scFv clone 6 (SC14) (scFv)
# scFv: EVQLVESGGGFVQPGRSLKLSCAASGFTFSNYAMAWVRQAPTKGLEWVASINSGGGDSYYRDSVKGRFTISRDNAKNTQYLQMDSLRSEDTATYYCATHNYGSTIFDYWGQGAMVTVSSGGGGSGGGGSGGGGSEIILTQSPTTMTASPGEKVTITCRASSSVSYMHWYQQKPGASPKPWIYETSKLASGVPDRFSGSGSGTSYSLTINNMEAEDAATYYCQQWNYPSMYTFGAGTKLELKR
# notes: Rat scFv, VH-linker-VL
# B10: anti-CD160 scFv clone 9 (PB6) (scFv)
# scFv: EVQLVESGGGLVQPGRSLKLSCAASGFTFSNYAMAWVRQAPTKGLEWVASISSGGGDTYYRDSVKGRFTISRDNSKNTQYLQMDSLRSEDTATYYCATHNYESTVLITWGQGASVTVSSGGGGSGGGGSGGGGSEIVLTQSPTTTAASPGERVTITCRASSSVSYMHWYQQKPGASPKPWIYETSKLASGVPDRFSGSGSGTSYSLTINNMEAEDAATYYCQQWNYPSMYTFGAGTKLEIKR
# notes: Rat scFv, VH-linker-VL
# B11: anti-CD160 scFv clone 1 (C123) (scFv)
# scFv: EVKLVESGGGLVQPGRSLKLSCAASGFIFSNYAMAWVRQAPTKGLEWVASVNSGGANTYYRDSVKGRFTISRDNAKNTQYLHIDSLRSEDTATYYCATHNYESTVFDYWGQGAMVTVSSGGGGSGGGGSSGGGGSEIVLTQSPTTMTASPGEKVTITCRASSSVSYMHWYQQKPGASPKPWIYETSKLASGVPDRFSGSGSGTSYSLTINNMEAEDAATYYCQQWNYPSMYTFGAGTKLELKR
# notes: Rat scFv, VH-linker-VL
# B12: anti-CD160 scFv clone 5 (C10) (scFv)
# scFv: QVQLKESGPGLVQPSETLSLTCTVSGFSLTNYGINWFRQPPGKGLEWMGTIWNDGGTDYNSALKSRLTISRDTSKSQVFLKMNSLQTEDTAIYFCARGMEAWGQGASVTVSSGGGGSGGGGSGGGGSDIQLTQSPSLLSASVGDRVTLSCKGSQNINNYLAWYQQKLGEAPKLLIYNTNSLQTGIPSRFSGSGSGTDYTLTISSLQPEDFATYFCLQHNSGYTFGAGTKLEIKR
# notes: Rat scFv, VH-linker-VL; also called 010
# B13: anti-CD160 scFv clone 8 (PB9) (scFv)
# scFv: QVNLQESGPGLVQPSETLSLTCTVSGFSLTNYGINWFRQPPGKGLEWMGTIWNDGGTDYNSALKSRLSISRDTSKSQVFLKMNSLQTEDTAIYFCARGMDAWGQGASVTVSSGGGGSGGGGSGGGGSDIQMTQSPASLSASLGETVSIECLASEDIYNNLAWYQQKPGKSPQLLIYYANSLQDGVPSRFSGSGSGTQYSLKINSLQSEDVATYFCQQYNNYPFTFGSGTKLELKR
# notes: Rat scFv, VH-linker-VL
# B14: anti-CD160 scFv clone 7 (scFv)
# scFv: EVQLVESGPGLVQPSETLSLTCTVSGFSLTSHGVNWFRQPPGKGLEWMGTIWNDGGTDYNSALKSRLSIIRDTSKGQVFLKMNSLQTEDTAIYFCARGLAYWGQGTLVTVSSGGGGSGGGGSGGGGSDIQMTQSPASLSASLGETVNIECLASEDIYSDLAWYQQKPGKSPQLLIYNANSLQNGVPSRFSGSGSGTQYSLKINSLQSEDVATYFCQQYNNYPWTFGGGTKLEIKR
# notes: Rat scFv, VH-linker-VL
# How the values were obtained:
# [1] = target: human CD160, GPI-anchored isoform, on engineered cells (SupT1, 293T) (human) (UniProt O95971); assay: flow cytometry, 293T cells transiently transfected with pVAC2 human CD160; the same quadrant on non-transfected 293T cells prints 1.53
# [2] = target: human CD160, GPI-anchored isoform, on engineered cells (SupT1, 293T) (human) (UniProt O95971); assay: flow cytometry, 293T cells transiently transfected with pVAC2 human CD160; the same quadrant on non-transfected 293T cells prints 0.071
# [3] = target: human CD160, GPI-anchored isoform, on engineered cells (SupT1, 293T) (human) (UniProt O95971); assay: flow cytometry, BY55-IgM-PE. The thick histogram (SupT1 CD160) peaks at about 10^4, the thin one (SupT1 negative) below 10^2 [Continued) B]
# [4] = target: commercially sourced CD160 protein (UniProt O95971); assay: ELISA, coating antigen CD160-His (Commercial CD160), BY55-huIgG1 titrated, OD 450nm. The table under panel C repeats the value
# [5] = target: CD160 fused with Twin streptag (panning reagent from transfected 293T supernatant, unpurified or purified via its Fc region) (human) (UniProt O95971); assay: ELISA, coating antigen CD160-Fc purified (Purified CD160 mIgG2a Fc), BY55-huIgG1 titrated, OD 450nm. The table under panel C repeats the value. The curve has no upper plateau in the range shown
# [6] = target: CD160 fused with Twin streptag (panning reagent from transfected 293T supernatant, unpurified or purified via its Fc region) (human) (UniProt O95971); assay: ELISA, coating antigen HEK supernatant (unpurified CD160 mIgG2a Fc), BY55-huIgG1 titrated, OD 450nm. The table under panel C repeats the value. The curve has no upper plateau in the range shown
# [7] = target: T1, purified CD160 (SPR analyte); assay: SPR, Biacore T200, scFv captured on CM5 chip, CD160 as analyte, single-cycle kinetics, 1:1 Langmuir fit
# Description: FIG. 8—Characterization of the monoclonal scFv identified in the biopanning. [A] […] We identified five different CDR3H in which three were represented in multiple clones and […]. [B] Flow cytometry analysis of the five selected CDR3 expressed secreted as chimeric scFv fused with mIgG2aFc. […] [C] The affinity of these five scFv was determined using Biacore T200 technology. Individual scFvs were captured on a CM5 chip and CD160 was injected as analyte at 5 different concentration (3.70 nM, 11.11 nM, 33.33, nM, 100 nM and 300 nM) in a single-cycle kinetic study. The double-reference subtracted sensorgrams fitted with the 1:1 Langmuir binding model; kinetic and model fitting data are reported in the table.
# The kinetic profile of the scFvs was studied by SPR using purified CD160 as the analyte and a range of high affinity scFvs were found (FIG. 8).
Molecule,Kd [7] [nM],koff [7] [s⁻¹],kon [7] [M⁻¹ s⁻¹],other results
commercial anti-CD160 antibody BY55,,,,"Q1 (anti-CD160-PE positive, blank channel negative), share of cells [1]: 66%; Q2 (anti-CD160-PE positive, blank channel positive), share of cells [2]: 14%; CD160+ (gate, share of cells) [3]: 92.9"
BY55-huIgG1 (antibody),,,,EC50 [4]: 0.14 µg/mL; EC50 [5]: 0.21 µg/mL; EC50 [6]: 0.06 µg/mL
B1,1.5e-05,1.69e-08,1.13e+06,
B2,8.91,0.00245,275000,
B3,0.12,3.9e-05,325000,
B4,0.262,6.51e-05,249000,
B5,5.31,0.000833,157000,
B6,0.000853,1.75e-07,205000,
B7,8.72,0.00243,279000,
B8,9.15,0.00125,137000,
B9,0.541,0.000143,264000,
B10,5.18,0.00211,408000,
B11,0.00154,2.76e-07,179000,
B12,18.4,0.0305,1.65e+06,
B13,4.92,0.00804,1.63e+06,
B14,0.33,0.00035,1.06e+06,
